In patent US6497872B1, “Neural transplantation using proliferated multipotent neural stem cells and their progeny” (NeuroSpheres Holdings Ltd., priority 1991, dated 2002):

What was measured:
[1] = test system: EGF-generated precursor cells; assay: Screening of BDNF on differentiation and survival of stem cell progeny (Example 37); format: cell-based, mouse
Description: Precursor cells were propagated as described in Example 4 and differentiated using Paradigm 3 described in Example 7. At the time of plating the EGF-generated cells, BDNF was added at a concentration of 10 ng/ml. At 3, 7, 14, and 21 days in vitro (DIV), cells were processed for indirect immunocytochemistry. BrdU labeling was used to monitor proliferation of the precursor cells. The effects of BDNF on neurons, oligodendrocytes and astrocytes were assayed by probing the cultures with antibodies that recognize antigens found on neurons (MAP-2, NSE, NF), oligodendrocytes (O4, GalC, MBP) or astrocytes (GFAP). Cell survival was determined by counting the number of immunoreactive cells at each time point and morphological observations were made.
Cells treated with BDNF according to the methods described in Part A were probed with antibodies that recognize neural transmitters or enzymes involved in the synthesis of neural transmitters. These included TH, ChAT, substance P, GABA, somatostatin, and glutamate. In both control and BDNF-treated culture conditions, neurons tested positive for the presence of substance P and GABA.
Cells that are responsive to growth factor treatment were identified by differentiating the EGF-generated progeny as described in Example 7, paradigm 3 and at 1 DIV adding approximately 100 ng/ml of BDNF. At 1, 3, 6, 12 and 24 hours after the addition of BDNF the cells were fixed and processed for dual label immunocytochemistry. Antibodies that recognize neurons (MAP-2, NSE, NF), oligodendrocytes (O4, GalC, MBP) or astrocytes (GFAP) were used in combination with an antibody that recognizes c-fos and/or other immediate early genes.

[2] = test system: EGF-generated neurospheres; assay: Effect of growth factors on neurosphere differentiation, immunocytochemistry (Example 8); format: cell-based, mouse; details: paradigm 3; BDNF
Description: Six to 8 days after the first passage, the neurospheres were removed and centrifuged at 400 r.p.m. The EGF-containing supernatant was removed and the pellet suspended in EGF-free complete medium containing 1% FBS. Neurospheres (approximately 0.5-1.0×10^6 cells/well) were plated on poly-L-ornithine-coated (15 μg/ml) glass coverslips in 24 well Nuclon (1.0 ml/well) culture dishes. After 24 hours in culture, the coverslips were transferred to 12 well (Costar) culture dishes containing complete medium containing 0.5% FBS. The medium was changed every 4-7 days. This differentiation procedure is referred to as the “Rapid Differentiation Paradigm” or RDP.
Six to 8 days after the first passage, the neurospheres were removed and centrifuged at 400 r.p.m. The EGF-containing media was removed and the pellet was suspended in EGF-free complete medium containing 1% FBS. The neurospheres were mechanically dissociated into single cells with a fire-polished Pasteur pipette and centrifuged at 800 r.p.m. for 5 minutes. Between 0.5×10^6 and 1.0×10^6 cells were plated on poly-L-ornithine-coated (15 μg/ml) glass coverslips in 24 well Nuclon (1.0 ml/well) culture dishes. The EGF-free culture medium containing 1% FBS was changed every 4-7 days.
Neurospheres were washed free of EGF by serial transfers through changes of EGF-free medium. A single neurosphere was plated onto poly-L-ornithine-coated (15 μg/ml) glass coverslips in a 24-well plate. The culture medium used was complete medium with or without I % FBS. The medium was changed every 4-7 days.
Neurospheres were washed free of EGF by serial transfers through changes of EGF-free medium. A single neurosphere was mechanically dissociated in a 0.5 ml Eppendorf centrifuge tube and all the cells were plated onto a 35 mm culture dish. Complete medium was used with or without 1% FBS.
The effects of CNTF, FGF-2, BDNF, and retinoic acid on neurosphere differentiation were tested using the differentiation paradigms set forth in Example 7.
The effect of CNTF was assayed in paradigms 1 and 3. For both paradigms, CNTF was added either at the beginning of the experiment at a concentration of 10 ng/ml or daily at a concentration of 1 ng/ml.
Three different antibodies directed against 04, galactocerebroside (GalC) and MBP were used to study the effect of CNTF on the oligodendrocytes of paradigm 1. CNTF had no effect on the number of 04(+) cells, but there was an increase in the number of GalC(+) and MBP(+) cells compared with the control. Thus it appears that CNTF plays a role in the maturation of oligodendrocytes.
The effect of FGF-2 was tested using paradigms 2 and 4. In paradigm 2, 20 ng/ml of FGF-2 was added at the beginning of the experiment and cells were stained 7 days later. FGF-2 increased the number of GFAP(+) cells and the number of NSE(+) cells.
In paradigm 4, 20 ng/ml of FGF-2 was added at the beginning of the experiment and assayed 7-10 days later. […] It induced two different cell types to divide, neuroblasts and bipotential progenitor cells. The neuroblast produced, on average, 6 neurons while the bipotential cell produced approximately 6 neurons and a number of astrocytes.

[3] = test system: EGF-generated mouse neurospheres; assay: BDNF on single EGF-generated neurospheres (Example 12); format: cell-based; details: 10 ng/ml; 14-28 days in vitro; preliminary experiments
Description: The expression of the trk family of neurotrophin receptors in EGF-generated neurospheres was examined by northern blot analysis. Total mRNA was isolated from mouse and rat striatal EGF-generated neurospheres. […] In preliminary experiments, single EGF-generated mouse neurospheres were plated on poly-L-ornithine coated glass coverslips and cultured in the absence or presence of 10 ng/ml of BDNF. […] Activation of the trkB receptor on EGF-generated neurospheres may enhance differentiation, survival of and/or neurite outgrowth from newly generated neurons.

B1: BDNF: brain-derived neurotrophic factor (protein, UniProt P23560 19-247, looked up)
Neurotrophic factor BDNF …: APMKEANIRGQGGLAYPGVRTHGTLESVNGPKAGSRGLTSLADTFEHVIEELLDEDQKVRPNEENNKDADLYTSRVMLSSQVPLEPPLLFLLEEYKNYLDAANMSMRVRRHSDPARRGELSVCDSISEWVTAADKKTAVDMSGGTVTVLEKVPVSKGQLKQYFYETKCNPMGYTKEGCRGIDKRHWNSQCRTTQSYVRALTMDSKKRIGWRFIRIDTSCVCTLTIKRGR
- neurite extension and branching ([1]; 10 ng/ml): dramatic increase
- Astrocyte and oligodendrocyte numbers versus control ([1]; 10 ng/ml, paradigm 3): not significantly altered
- differentiation and survival of neurons versus control ([1]; 10 ng/ml, paradigm 3, 3-21 DIV): significantly increased
- expression of c-fos ([1]; approximately 100 ng/ml at 1 DIV, 1-24 hours): selective increase in the expression of c-fos in neuronal cells
- neuronal branching and migration of the neurons away from the sphere [2]: increase
- number of NSE(+) neurons per neurosphere [2]: increase
- morphology of NSE(+) cells [3]: NSE(+) cells with extensive and highly branched processes
